Measurements as given in article PMC10786891, “Massively parallel profiling of RNA-targeting CRISPR-Cas13d”.

T1: EsCas13d, nuclease-dead (Eubacterium siraeum, UniProt B0MS50, R295A;H300A;R849A;H854A)
T1 sequence: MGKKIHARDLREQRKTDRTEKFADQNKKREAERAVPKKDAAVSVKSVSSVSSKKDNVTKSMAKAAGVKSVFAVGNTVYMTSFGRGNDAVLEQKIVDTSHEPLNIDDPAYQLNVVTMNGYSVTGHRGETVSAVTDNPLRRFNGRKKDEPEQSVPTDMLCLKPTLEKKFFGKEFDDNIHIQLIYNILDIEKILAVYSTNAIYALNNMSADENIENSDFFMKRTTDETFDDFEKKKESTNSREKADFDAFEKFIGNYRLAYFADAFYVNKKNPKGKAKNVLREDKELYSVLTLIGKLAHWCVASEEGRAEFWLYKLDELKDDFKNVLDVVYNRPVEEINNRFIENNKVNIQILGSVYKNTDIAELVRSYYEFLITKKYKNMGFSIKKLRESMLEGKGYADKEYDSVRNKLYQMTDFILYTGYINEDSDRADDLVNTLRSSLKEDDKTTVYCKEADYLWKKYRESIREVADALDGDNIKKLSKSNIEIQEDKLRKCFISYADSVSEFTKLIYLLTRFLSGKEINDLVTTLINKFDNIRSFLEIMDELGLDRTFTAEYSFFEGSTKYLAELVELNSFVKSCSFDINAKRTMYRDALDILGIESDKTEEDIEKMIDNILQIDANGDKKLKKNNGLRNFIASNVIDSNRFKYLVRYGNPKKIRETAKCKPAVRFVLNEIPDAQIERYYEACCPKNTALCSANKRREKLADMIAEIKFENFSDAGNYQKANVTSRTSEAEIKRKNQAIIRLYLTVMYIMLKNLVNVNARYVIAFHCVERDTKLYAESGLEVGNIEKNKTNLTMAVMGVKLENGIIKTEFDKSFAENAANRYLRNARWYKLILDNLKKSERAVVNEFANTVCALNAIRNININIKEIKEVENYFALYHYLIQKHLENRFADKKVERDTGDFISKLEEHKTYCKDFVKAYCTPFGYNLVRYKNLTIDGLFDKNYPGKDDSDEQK

B1: target 1 del2,del7 (mixed)
RNA 1: CACCCGUGCAAAAAUGCAGGGGUCUAAAACUGAGCGGAUAACCUCUCUAUGG
RNA 2: GGGAAUGGAUCCACAUCUACGAAUUCGUACCAUAGAGAGGUUAUCGCUACCGAGAUCGGAAGAGCACACGU
B2: target 1 A1U,C4G (mixed)
RNA 1: CACCCGUGCAAAAAUGCAGGGGUCUAAAACUGAGCGGAUAACCUCUCUAUGG
RNA 2: GGGAAUGGAUCCACAUCUACGAAUUCGUACCAUAGAGAGGUUAUCCGGUCUCCGAGAUCGGAAGAGCACACGU
B3: target 1 del1,del7 (mixed)
RNA 1: CACCCGUGCAAAAAUGCAGGGGUCUAAAACUGAGCGGAUAACCUCUCUAUGG
RNA 2: GGGAAUGGAUCCACAUCUACGAAUUCGUACCAUAGAGAGGUUAUCGCUCCCGAGAUCGGAAGAGCACACGU
B4: target 1 U3G,U19G (mixed)
RNA 1: CACCCGUGCAAAAAUGCAGGGGUCUAAAACUGAGCGGAUAACCUCUCUAUGG
RNA 2: GGGAAUGGAUCCACAUCUACGAAUUCGUACCAGAGAGAGGUUAUCCGCGCACCGAGAUCGGAAGAGCACACGU
B5: target 1 U10G,A20C (mixed)
RNA 1: CACCCGUGCAAAAAUGCAGGGGUCUAAAACUGAGCGGAUAACCUCUCUAUGG
RNA 2: GGGAAUGGAUCCACAUCUACGAAUUCGUACCCUAGAGAGGUGAUCCGCUCACCGAGAUCGGAAGAGCACACGU
B6: target 1 del8 (mixed)
RNA 1: CACCCGUGCAAAAAUGCAGGGGUCUAAAACUGAGCGGAUAACCUCUCUAUGG
RNA 2: GGGAAUGGAUCCACAUCUACGAAUUCGUACCAUAGAGAGGUUACCGCUCACCGAGAUCGGAAGAGCACACGU
B7: target 1 C6G (mixed)
RNA 1: CACCCGUGCAAAAAUGCAGGGGUCUAAAACUGAGCGGAUAACCUCUCUAUGG
RNA 2: GGGAAUGGAUCCACAUCUACGAAUUCGUACCAUAGAGAGGUUAUCGGCUCACCGAGAUCGGAAGAGCACACGU
B8: target 1 U8C,C22U (mixed)
RNA 1: CACCCGUGCAAAAAUGCAGGGGUCUAAAACUGAGCGGAUAACCUCUCUAUGG
RNA 2: GGGAAUGGAUCCACAUCUACGAAUUCGUAUCAUAGAGAGGUUACCCGCUCACCGAGAUCGGAAGAGCACACGU
B9: target 1 insU 3' of 6,insC 3' of 5 (mixed)
RNA 1: CACCCGUGCAAAAAUGCAGGGGUCUAAAACUGAGCGGAUAACCUCUCUAUGG
RNA 2: GGGAAUGGAUCCACAUCUACGAAUUCGUACCAUAGAGAGGUUAUCCUGCCUCACCGAGAUCGGAAGAGCACACGU
B10: target 1 A1U,C21U (mixed)
RNA 1: CACCCGUGCAAAAAUGCAGGGGUCUAAAACUGAGCGGAUAACCUCUCUAUGG
RNA 2: GGGAAUGGAUCCACAUCUACGAAUUCGUACUAUAGAGAGGUUAUCCGCUCUCCGAGAUCGGAAGAGCACACGU
B11: target 1 C7U,C22A (mixed)
RNA 1: CACCCGUGCAAAAAUGCAGGGGUCUAAAACUGAGCGGAUAACCUCUCUAUGG
RNA 2: GGGAAUGGAUCCACAUCUACGAAUUCGUAACAUAGAGAGGUUAUUCGCUCACCGAGAUCGGAAGAGCACACGU
B12: target 1 insC 3' of 10,insG 3' of 1 (mixed)
RNA 1: CACCCGUGCAAAAAUGCAGGGGUCUAAAACUGAGCGGAUAACCUCUCUAUGG
RNA 2: GGGAAUGGAUCCACAUCUACGAAUUCGUACCAUAGAGAGGUUCAUCCGCUCAGCCGAGAUCGGAAGAGCACACGU
B13: target 1 insC 3' of 10,insA 3' of 2 (mixed)
RNA 1: CACCCGUGCAAAAAUGCAGGGGUCUAAAACUGAGCGGAUAACCUCUCUAUGG
RNA 2: GGGAAUGGAUCCACAUCUACGAAUUCGUACCAUAGAGAGGUUCAUCCGCUCAACCGAGAUCGGAAGAGCACACGU
B14: target 1 insC 3' of 10,insC 3' of 1 (mixed)
RNA 1: CACCCGUGCAAAAAUGCAGGGGUCUAAAACUGAGCGGAUAACCUCUCUAUGG
RNA 2: GGGAAUGGAUCCACAUCUACGAAUUCGUACCAUAGAGAGGUUCAUCCGCUCACCCGAGAUCGGAAGAGCACACGU
B15: target 1 C6U,U11A (mixed)
RNA 1: CACCCGUGCAAAAAUGCAGGGGUCUAAAACUGAGCGGAUAACCUCUCUAUGG
RNA 2: GGGAAUGGAUCCACAUCUACGAAUUCGUACCAUAGAGAGGAUAUCUGCUCACCGAGAUCGGAAGAGCACACGU
B16: target 1 insG 3' of 6,insG 3' of 6 (mixed)
RNA 1: CACCCGUGCAAAAAUGCAGGGGUCUAAAACUGAGCGGAUAACCUCUCUAUGG
RNA 2: GGGAAUGGAUCCACAUCUACGAAUUCGUACCAUAGAGAGGUUAUCCGGGCUCACCGAGAUCGGAAGAGCACACGU
B17: target 1 insC 3' of 10,insU 3' of 1 (mixed)
RNA 1: CACCCGUGCAAAAAUGCAGGGGUCUAAAACUGAGCGGAUAACCUCUCUAUGG
RNA 2: GGGAAUGGAUCCACAUCUACGAAUUCGUACCAUAGAGAGGUUCAUCCGCUCAUCCGAGAUCGGAAGAGCACACGU
B18: target 1 G17U (mixed)
RNA 1: CACCCGUGCAAAAAUGCAGGGGUCUAAAACUGAGCGGAUAACCUCUCUAUGG
RNA 2: GGGAAUGGAUCCACAUCUACGAAUUCGUACCAUAUAGAGGUUAUCCGCUCACCGAGAUCGGAAGAGCACACGU
B19: target 1 insC 3' of 10,insU 3' of 9 (mixed)
RNA 1: CACCCGUGCAAAAAUGCAGGGGUCUAAAACUGAGCGGAUAACCUCUCUAUGG
RNA 2: GGGAAUGGAUCCACAUCUACGAAUUCGUACCAUAGAGAGGUUCAUUCCGCUCACCGAGAUCGGAAGAGCACACGU
B20: target 1 A1G,C21U (mixed)
RNA 1: CACCCGUGCAAAAAUGCAGGGGUCUAAAACUGAGCGGAUAACCUCUCUAUGG
RNA 2: GGGAAUGGAUCCACAUCUACGAAUUCGUACUAUAGAGAGGUUAUCCGCUCGCCGAGAUCGGAAGAGCACACGU
B21: target 1 insU 3' of 15,insU 3' of 14 (mixed)
RNA 1: CACCCGUGCAAAAAUGCAGGGGUCUAAAACUGAGCGGAUAACCUCUCUAUGG
RNA 2: GGGAAUGGAUCCACAUCUACGAAUUCGUACCAUAGAGUAUGGUUAUCCGCUCACCGAGAUCGGAAGAGCACACGU
B22: target 1 C21U (mixed)
RNA 1: CACCCGUGCAAAAAUGCAGGGGUCUAAAACUGAGCGGAUAACCUCUCUAUGG
RNA 2: GGGAAUGGAUCCACAUCUACGAAUUCGUACUAUAGAGAGGUUAUCCGCUCACCGAGAUCGGAAGAGCACACGU
B23: target 1 insA 3' of 5,insA 3' of 3 (mixed)
RNA 1: CACCCGUGCAAAAAUGCAGGGGUCUAAAACUGAGCGGAUAACCUCUCUAUGG
RNA 2: GGGAAUGGAUCCACAUCUACGAAUUCGUACCAUAGAGAGGUUAUCCGACUACACCGAGAUCGGAAGAGCACACGU
B24: target 1 A1C,C21U (mixed)
RNA 1: CACCCGUGCAAAAAUGCAGGGGUCUAAAACUGAGCGGAUAACCUCUCUAUGG
RNA 2: GGGAAUGGAUCCACAUCUACGAAUUCGUACUAUAGAGAGGUUAUCCGCUCCCCGAGAUCGGAAGAGCACACGU

molecular target: T1, EsCas13d, nuclease-dead; test: crRNA (strand 1, pre-loaded); Mg2+; 40 mM Tris-HCl pH 7.5, 150 mM NaCl, 6 mM MgCl2, 1 mM DTT, 0.1% Tween-20, 0.2 mg/ml BSA; 25 C; 10 min per concentration, then washed; conditions: tags: His6-TwinStrep-SUMO cleaved; N-terminal SNAP kept (SNAP-Surface 488); label: 3' end held by stalled T7 RNA polymerase

Point of comparison: B4, Kd 35.9 ± 2.7 nM. Against it:
- B1 — 5.4-fold lower, 6.62 ± 0.24 nM
- B2 — 5.9-fold lower, 6.11 ± 0.25 nM
- B3 — 3.7-fold lower, 9.7 ± 0.6 nM
- B5 — 2.1-fold higher, 76 ± 29 nM
- B6 — 3.4-fold lower, 10.5 ± 0.6 nM
- B7 — 4.3-fold lower, 8.37 ± 0.31 nM
- B8 — within 1.5-fold, 28 ± 4 nM
- B9 — 2.6-fold lower, 13.9 ± 0.8 nM
- B10 — 4.7-fold lower, 7.6 ± 0.4 nM
- B11 — 3.3-fold lower, 11 ± 0.5 nM
- B12 — 2.3-fold lower, 15.5 ± 1.4 nM
- B13 — 1.9-fold lower, 19.4 ± 2.4 nM
- B14 — 2.7-fold lower, 13.5 ± 1 nM
- B15 — within error, 38.2 ± 2.4 nM
- B16 — 3.1-fold lower, 11.4 ± 0.5 nM
- B17 — within 1.5-fold, 26 ± 4 nM
- B18 — 2.1-fold lower, 17 ± 1.3 nM
- B19 — 1.8-fold higher, 66 ± 27 nM
- B20 — 5.6-fold lower, 6.38 ± 0.24 nM
- B21 — within 1.5-fold, 53 ± 4 nM
- B22 — 5.5-fold lower, 6.47 ± 0.24 nM
- B23 — 5.3-fold lower, 6.8 ± 0.6 nM
- B24 — 2.8-fold lower, 13 ± 4 nM
